This data set is described as follows: soluble on expression in E. coli; label from the status in PepcDB or PDB records.
For the sequence “MSLKLTKKVGYAGRVITERGLEELEKANISYRLGSIYSNILEKTISANYRFGYVVINRCQVYADFNDVLKIIKSVYESGLAVGDRVGIIDREKFVEINTLCSLNFDNILLQNGIFPLHVCAGVVKYEDGKPVEFKEIIDYKSTSIDPLRAFIEKKETDVMGIIENGEGYLPANFRYFGVEFLERFETILEIDELKCIISYGTENVLGLDVGDDKVGVALIGGLTPIAPFVENNYCVEICPMSSIVRLESLHKLKKNPRDIVTKKANIRIKTALSKMFNAMAKVTYDIDEADGDVIVNTAFIDKKYLDEAFDILKEAYKKGLGISDRFGIVEENDRIKIQTICAVTLDGIFLRNSVPLIPKYGGILEITEDKERFIDIIGYDGSSLDPHEVFFNFVDCEKTFLAGFREVHRVAREKLEEVLKKLNWNGIKAIGEPNNELYGIGVNKDMCGVVTMGGINPLVLLKENEIPIELKAMHEVVRFSDLKSYKEIEGHHHHHH”, the “soluble on expression in E. coli” value is on record as “soluble”.

As to “MGSDKIHHHHHHNQFSVKCWLRYIEFKQGAPKPRLNQLYERALKLLPCSYKLWYRYLKARRAQVKHRCVTDPAYEDVNNCHERAFVFMHKMPRLWLDYCQFLMDQGRVTHTRRTFDRALRALPITQHSRIWPLYLRFLRSHPLPETAVRGYRRFLKLSPESAEEYIEYLKSSDRLDEAAQRLATVVNDERFVSKAGKSNYQLWHELCDLISQNPDKVQSLNVDAIIRGGLTRFTDQLGKLWCSLADYYIRSGHFEKARDVYEEAIRTVMTVRDFTQVFDSYAQFEESMIAAKMETASELGREEEDDVDLELRLARFEQLISRRPLLLNSVLLRQNPHHVHEWHKRVALHQGRPREIINTYTEAVQTVDPFKATGKPHTLWVAFAKFYEDNGQLDDARVILEKATKVNFKQVDDLASVWCQCGELELRHENYDEALRLLRKATALPARRAEYFDGSEPVQNRVYKSLKVWSMLADLEESLGTFQSTKAVYDRILDLRIATPQIVINYAMFLEEHKYFEESFKAYERGISLFKWPNVSDIWSTYLTKFIARYGGRKLERARDLFEQALDGCPPKYAKTLYLLYAQLEEEWGLARHAMAVYERATRAVEPAQQYDMFNIYIKRAAEIYGVTHTRGIYQKAIEVLSDEHAREMCLRFADMECKLGEIDRARAIYSFCSQICDPRTTGAFWQTWKDFEVRHGNEDTIKEMLRIRRSVQATYNTQVNFMASQMLKVSGSATGTVSDLAPGQSGMDDMKLLEQRAEQLAAEAERDQPLRAQSKILFVRSDASREELAELAQQVNPEEIQLGEDEDEDEMDLEPNEVRLEQQSVPAAVFGSLKED”, the “soluble on expression in E. coli” value was “not soluble”.

As to “MASLKVPSNVPLPEDDAEQLHKAFSGWGTNEKLIISILAHRNAAQRSLIRSVYAATYNEDLLKALDKELSSDFERAVMLWTLDPPERDAYLAKESTKMFTKNNWVLVEIACTRPALELIKVKQAYQARYKKSIEEDVAQHTSGDLRKLLLPLVSTFRYEGDDVNMMLARSEAKILHEKVSEKSYSDDDFIRILTTRSKAQLGATLNHYNNEYGNAINKNLKEESDDNDYMKLLRAVITCLTYPEKHFEKVLRLSINKMGTDEWGLTRVVTTRTEVDMERIKEEYQRRNSIPLDRAIAKDTSGDYEDMLVALLGHGDA”, the “soluble on expression in E. coli” value is recorded as “soluble”.

For “MATLYDVPPEELIEALTETLADEDDIEAPDWAEFTKTGVDRELPPEQEDFWTRRAASLLRKVAVDGPVGVNALRSEYGTSKQGTTRYRVRPHQKTKGSGNIIRTALQQLEDAGYVETSENDGRRVTGDGRSLLDDTAGDLLTELDRPELERYALEHHHHHH”, the “soluble on expression in E. coli” value was “soluble”.

As to “QNFAIPTSSLEKTLLIGDYLFVSKLSYGPRSPMTPLGVPLTHNTMPLTGGKSFSDKPLLPYKRLKGFGHVKEGDLVVFNFPAGDTVAVKQPNPDYYMWKKLVGREELWSNPDFYGEIVYRPVDRRDHYVKRCVGMPGQELSIRNNQIYIDGKEQRNPRNMQLNYLVRMSREMSVDLIDELGISYDDVRAASSEELKASVGSNLIDSASNQPQIIYHLPLTQGMLDKLQAEPSFVKAVEEPTPIGPLYPLEYETGWTRDNYGPIVIPAKGMTVRLTPLNLALYSRCIRNFEGNKLVQKADGTVLINGRPADSYTFKMDY”, the “soluble on expression in E. coli” value is on record as “not soluble”.

With “MGSDKIHHHHHHMNREFYGKIIISGEIEAVTGLHIGSQREVSEIGGIDNPVIKDPHTGLPYIPGSSLKGRLRSLFEIYVNTRLDELKSKYSSLSNYSKGSCRDVGKENCGKFFNKKLNNVWIHVCSTYEMARNCPVCRLYGSSGKESNFPSRLIVRDAFLTEEWKKKWENGEAITEAKIEVGIDRVTSQANPRTTERVVAGTRFDFEIIYTIEDLKEWKDDLRNLLTSMLLLEDSYLGGSGSRGYGKVRFHVKGLELRPLEYYRTGDEGKIVKKTEYERVEDLLKNFETITSEFDRRVGGIEG”, the “soluble on expression in E. coli” value is “not soluble”.

For “MKSPAPSRPQKMALIPACIFLCFAALSVQAEETPVTPQPPDILLGPLFNDVQNAKLFPDQKTFADAVPNSDPLMILADYRMQQNQSGFDLRHFVNVNFTLPKEGEKYVPPEGQSLREHIDGLWPVLTRSTENTEKWDSLLPLPEPYVVPGGRFREVYYWDSYFTMLGLAESGHWDKVADMVANFAHEIDTYGHIPNGNRSYYLSRSQPPFFALMVELLAQHEGDAALKQYLPQMQKEYAYWMDGVENLQAGQQEKRVVKLQDGTLLNRYWDDRDTPRPESWVEDIATAKSNPNRPATEIYRDLRSAAASGWDFSSRWMDNPQQLNTLRTTSIVPVDLNSLMFKMEKILARASKAAGDNAMANQYETLANARQKGIEKYLWNDQQGWYADYDLKSHKVRNQLTAAALFPLYVNAAAKDRANKMATATKTHLLQPGGLNTTSVKSGQQWDAPNGWAPLQWVATEGLQNYGQKEVAMDISWHFLTNVQHTYDREKKLVEKYDVSTTGTGGGGGEYPLQDGFGWTNGVTLKMLDLICPKEQPCDNVPATRPTVKSATTQPSTKEAQPTP”, the “soluble on expression in E. coli” value is reported as “not soluble”.

On to “MGSDKIHHHHHHMTIYYNEMVDGGLVREPYAMLSDWIETMPAEIRQMKQAEAEALFRRIGITFAVYGEGGDPDRLIPFDMMPRVFLQGEWRRLERGIKQRARGLNAFLRDVYGRGEIVRAGRIPAPLVYRNAAYEKAVVGFVPPRGVFSHIVGIDIVRTGRDEFHVLEDNCRTPSGVSYMLENREIMMRMFPALFRNNRIEPVDQYPELLRRTLASVAPAKCEGEPTVVILTPGHYNSAYYEHSFLANLMGVELVEGSDLFVDGGFVYMRTTQGPKRVDVIYRRIDDQFLDPLCFRRDSMLGVPGLMDVWRSGGVSIASAPGAGVADDKAVYTFVPEMIRFYLGEEPILNNVQTWTLWKDDDYRYVMANLKDLVVKEVHGSGGYGMLIGPRATKAEIEAFAERIKADPGNYIAQPTLALSTSPTFVDEGVAPRHVDLRPFCLCGDRIELVPGGLTRVALREGSLVVNSSQGGGVKDTWVLSE”, for which the “soluble on expression in E. coli” value is recorded as “not soluble”.

On to “MRLCGLLIFLSYIVYVDNAVTANFISDPRSMFPKMVRTKNAFHFLQYFMGTFRRMFRNKTEMIEHFNYYDDQVKGTDCHIQEELDFARFKSYFDRYTRTHYNPEIRIIFAIMTKDSSHMTVEFHVTSQSWFGFEDHFHMIIRAVNDENVGWGVRYLSMAFNC”, for which the “soluble on expression in E. coli” value was “not soluble”.

“MGSDKIHHHHHHMLPRLLDRCAGMVSHDWTALDRDLRRFLPKKSVVSKRQELLVYDCDGLTIDRHCPPLAVLPETTEEVSQILACCHRHSIPFVARGSGTGLSGGALVEQEALLVVTSRMRRILSMDLDNHTITVQPGVINSWVTRAVAGEGFYYAPDPSSQVVCSIGGNVAENSGGVHCLKYGVTSNHVLGLEVVLADGTVTLLGGGLPEHAELDLRGAFIGSEGTLGIATAITLRLLRAPQHVTVLLADFPTMESAGEAVCQVTAAGVLPAGMEIMDNFMINAVNDLFGFDEYPRDAAAVLLIELDGQAAEVTVAADQASGLCSKAGARTIRRAEEPADRALLWKGRKSAFAAVGQISPTYYVQDGVVPRSTLPRVLMAIERLSREYELPVANVFHAGDGNLHPLILYNADTPDVESRVRDLGSAILRECLDVGGSITGEHGVGADKRCYLDWMFAADDLSTMKLLRRAFDPDGRANPDKIFPTPKSCGESARRQVILTSEGLEMPSEAKAF”: the “soluble on expression in E. coli” value is on record as “not soluble”.

In the case of “MSHVDDGFRSLTLKRFPQTDDVNPLLAWEAADEYLLQQLDETEIRGPVLILNDTFGALSCALAEHSPYSIGDSYLSELGTRENLRHNGIAESSVTFLDSTADYPQAPGVVLIKVPKTLALLEQQLRALRKVVTAQTRIIAGAKARDIHTSTLELFEKVLGPTTTTLAWKKARLINCTFSHPQLADAPQTLSWKLEDTGWTIHNHANVFSRTGLDIGARFFMQHLPENLDGEIVDLGCGNGVIGLSLLAKNPQANVVFVDESPMAVDSSRLNVETNLPEAFERCEFMINNALSGVEPFRFNAVFCNPPFHQKHALTDNIAWEMFHHARRCLKINGELYIVANRHLDYFHKLKKIFGNCATIATNNKFVILKAVKQGRRR”, the “soluble on expression in E. coli” value was “not soluble”.

“MAIKSPPTLIPLSHLSGEELQAHLRFNRVTDEKGRYLPFDELQYRIKKGENVDVAWTLTRLARNAAIQRINYCNEAGEQAGFNITPVIAEACELVDKRATALALKDQTERLRGAGAELSQLRLEEPITSSQLEGANTTTLVARKMLETGRSPRTEDEHMIAGNARLMAEIPHLLAEPLTPALIRQLHAIGMGGINDAKYRPGEFRETDDVVIADYDGNIVHQPPAAALLPERLEKVCQWLNSHEGYIHPLVRACILHFMLAHEHPFRDGNGRTSRALFYWYMLKSGYDVFKYISISRLLHAAPVKYAASYQYTESDGMDLTYFLEYQAGVIKRALQNWQQHIDEITQRSAKLDSVLFSSGVLKRLNPRQVTLLNVMLANPGKEYTVAEISASLGVSDNTVRADLRTIVKEGFAQEKKINDQQAVYFAHYPL”: the “soluble on expression in E. coli” value was “not soluble”.

As to “MQMPRRFNTYCPHCNEHQEHEVEKVRSGRQTGMKWIDRQRERNSGIGNDGKFSKVPGGDKPTKKTDLKYRCGECGKAHLREGWRAGRLEFQE”, the “soluble on expression in E. coli” value is “soluble”.

Take “MKRLSLREAWPYLKDLQQDPLAVLLEWGRAHPRLFLPLPRFPLALIFDPEGVEGALLAEGTTKATFQYRALSRLTGRGLLTDWGKSWKEARKALKDPFLPKSVRGYREAMEEEAWAFFGEWRGEERDLDHEMLALSLRLLGRALFGKPLSPSLAEHALKALDRIMAQTRSPLALLDLAAEARFRKDRGALYREAEALIVHPPLSHLPRERALSEAVTLLVAGHETVASALTWSFLLLSHRPDWQKRVAESEEAALAAFQEALRLYPPAWILTRRLERPLLLGEDRLPQGTTLVLSPYVTQRLYFPEGEAFQPERFLAERGTPSGRYFPFGLGQRLCLGRDFALLEGPIVLRAFFRRFRLDPLPFPRVLAQVTLRPEGGLPARPREGVRA”: the “soluble on expression in E. coli” value was “soluble”.

Consider “MWQRIRLLQTLVSQKGAATAAAGAASSSPTAAAAAATTAAPPSPAPSVAADNERSFLRNLIPMRVYSSGPPSIYLRHAFLNQDRLIRRFLGALEAVPLPSLPRLLLAEGFQRMLEGDVPQRELRELFEDAEVECRKMLLHMDVSKSGHRRYHDSHADPRDQEMWHAVRHDPLRRLLAHELRAACSHYARLMGVSSSPYVPAAVIVRTIIASDVRTDNFLVKMTLAFERHPRNVETGEPVGEAMPPVVEELMKELLLLERDAFGCFRFDPRGDNHHLVHSLKLADITKTPRSFSVMRDPLMKRYGNYCVECEEVHKGRWNQYKVHCGPEDHRIDPALPLFESVVATDPITGGALNMLVHYDEPICLRHKHSLREEKGNFGHTEVFELAMDVTNRTFWERYFLDR”, for which the “soluble on expression in E. coli” value is “soluble”.

Consider “MGHHHHHHSHVNTLGPEGTSSEYAAKHFISNFTLLQGLNSKLSLHDTFESCIERTLQSPLEYTIVPHAYDGIKHFYMRPDLQLLQIFRCDTPMYGLAVRPDFEFRDDMLDTSVIVSHPSPINLIKYFTRKDVRFKLVNSTSQAARKVKEGLYDIALTNELARQKYGLTFVKTFKSIPMSWSLFGKGDV”, for which the “soluble on expression in E. coli” value is recorded as “soluble”.

For the origin of these results see the DeepSol protein solubility set.
